Measured values reported in article PMC10989685 (2024).

Tests used:
[1] = molecular target: Neurexin2α (UniProt E9Q7X7); assay: SPR
[2] = molecular target: Recombinant human His-tagged IgSF21 protein (R&D Systems #10330-S2) (human, UniProt Q96ID5 25-444); assay: SPR

Chain of Neurexin2α (E9Q7X7 29-1634): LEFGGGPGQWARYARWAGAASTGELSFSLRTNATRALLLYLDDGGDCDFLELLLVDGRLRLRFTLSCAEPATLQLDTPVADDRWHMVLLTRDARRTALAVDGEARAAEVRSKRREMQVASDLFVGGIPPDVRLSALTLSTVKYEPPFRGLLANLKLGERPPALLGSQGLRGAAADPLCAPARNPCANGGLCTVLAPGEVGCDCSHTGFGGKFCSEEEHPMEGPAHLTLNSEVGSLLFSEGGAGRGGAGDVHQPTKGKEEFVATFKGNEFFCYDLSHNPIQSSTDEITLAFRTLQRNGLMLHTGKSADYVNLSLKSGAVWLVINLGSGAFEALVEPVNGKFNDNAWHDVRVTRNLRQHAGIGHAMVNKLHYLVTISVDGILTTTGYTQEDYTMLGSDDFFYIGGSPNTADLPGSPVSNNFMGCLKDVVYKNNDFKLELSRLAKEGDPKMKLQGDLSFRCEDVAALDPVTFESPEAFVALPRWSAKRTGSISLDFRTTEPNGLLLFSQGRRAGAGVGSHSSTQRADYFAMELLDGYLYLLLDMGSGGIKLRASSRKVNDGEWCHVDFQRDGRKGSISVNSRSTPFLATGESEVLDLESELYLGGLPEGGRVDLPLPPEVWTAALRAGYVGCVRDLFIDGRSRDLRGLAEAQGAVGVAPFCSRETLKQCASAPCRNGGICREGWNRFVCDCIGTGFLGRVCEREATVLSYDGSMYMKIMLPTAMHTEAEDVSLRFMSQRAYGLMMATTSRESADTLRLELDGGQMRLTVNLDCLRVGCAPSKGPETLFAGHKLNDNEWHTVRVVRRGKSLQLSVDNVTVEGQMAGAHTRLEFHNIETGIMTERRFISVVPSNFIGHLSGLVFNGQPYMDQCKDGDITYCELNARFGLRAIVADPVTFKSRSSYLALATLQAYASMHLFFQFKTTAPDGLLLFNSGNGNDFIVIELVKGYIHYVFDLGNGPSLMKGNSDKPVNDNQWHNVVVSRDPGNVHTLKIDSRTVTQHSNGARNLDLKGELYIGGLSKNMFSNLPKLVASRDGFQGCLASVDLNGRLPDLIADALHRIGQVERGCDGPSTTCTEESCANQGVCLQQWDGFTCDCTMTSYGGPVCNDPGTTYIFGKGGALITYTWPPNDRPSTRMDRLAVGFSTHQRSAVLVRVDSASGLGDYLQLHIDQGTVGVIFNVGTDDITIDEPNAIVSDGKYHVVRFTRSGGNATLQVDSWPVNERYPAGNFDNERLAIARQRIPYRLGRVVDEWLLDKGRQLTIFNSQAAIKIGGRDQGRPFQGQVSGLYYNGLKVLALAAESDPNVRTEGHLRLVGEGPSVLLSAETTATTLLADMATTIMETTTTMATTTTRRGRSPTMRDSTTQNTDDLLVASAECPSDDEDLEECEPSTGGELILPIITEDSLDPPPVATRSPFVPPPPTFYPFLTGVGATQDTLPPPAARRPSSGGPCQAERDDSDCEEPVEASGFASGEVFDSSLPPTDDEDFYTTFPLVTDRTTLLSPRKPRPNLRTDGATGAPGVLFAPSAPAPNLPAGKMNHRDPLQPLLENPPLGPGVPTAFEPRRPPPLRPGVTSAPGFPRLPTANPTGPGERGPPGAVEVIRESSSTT

| Binder | Kd [1] [nM] | koff [2] [s⁻¹] |
| --- | --- | --- |
| IgSF21 (protein) YLTVNIEPLPPVVAGDAVTLKCNFKTDGRMREIVWYRVTDGGTIKQKIFTFDAMFSTNYSHMENYRKREDLVYQSTVRLPEVRISDNGPYECHVGIYDRATREKVVLASGNIFLNVMAPPTSIEVVAADSPAPFSRYQAQNFTLVCIVSGGKPAPMVYFKRDGEPIDAVPLTELPAASSGPVQDSRPFRSLLHRDVDDTKMQKSLSLLDTEYRAGRPYTERPARSLTQDPSLFVQPTTENIPETVVSREFPRWVHSAEPVYFLRHSRTPGSDGTVEVRALLTWTLNPQIDNEALFSCEVKHPALSMPMQAEVTLVAPKGPKIMMTPSRARVGDTVRILVHGFQNEVFPEPMFTWTRVGSRLLDGSAEFDGKELVLERVPAELNGSMYRCTAQNPLGSTDTHTRLIVFENPNIPRGTEDSRGSASGPAGVRLTLVLALTVILELT | 5.67 |  |
| Recombinant human Fc-tagged NRXN2α (human Nrxn2α-Fc, R&D Systems #6636-NX) (Fc fusion) not shown |  | 0.00101 |
